The values that follow come from patent US20200086139A1, “COMBINATION THERAPY FOR THE TREATMENT OF GLIOBLASTOMA” (Genentech, Inc., priority 2012, published 2020).

Series [1] deals with newly diagnosed glioblastoma. As to the kind of experiment: AVAglio Phase III trial, efficacy (PFS, ORR, pseudoprogression, steroid discontinuation). The series is classed as in vivo, human. From the text:
(§1) A randomized, double blind, placebo controlled multicenter Phase III trial of bevacizumab, temozolomide and radiotherapy, followed by bevacizumab and temozolomide versus placebo, temozolomide and radiotherapy followed by placebo and temozolomide in patients with newly diagnosed glioblastoma (AVAglio)
(§2) The AVAglio trial evaluated the efficacy and safety of bevacizumab in combination temozolomide and radiotherapy for newly diagnosed glioblastoma. This study was designed as a prospective, randomized, double blind, placebo controlled Phase III evaluation of bevacizumab plus chemotherapy versus chemotherapy alone. To be eligible, patients must have newly diagnosed glioblastoma with a tissue diagnosis that has been established following either a surgical resection or biopsy. By adding bevacizumab to chemotherapy and radiotherapy, the AVAglio trial aimed to improve overall survival (OS) and progression-free survival (PFS) for this group of patients who have limited therapeutic options and face a particularly poor prognosis. The primary objective was to compare OS and PFS of patients randomised to temozolomide and radiotherapy only or to temozolomide and radiotherapy plus bevacizumab.
(§3) Study Design—This trial consisted of three phases (Concurrent, Maintenance, and Monotherapy) and two (2) treatment arms: temozolomide and radiotherapy (Arm 1) and temozolomide and radiotherapy plus bevacizumab (Arm 2). Patients were randomly assigned (1:1) to either arm, see FIG. 1.
(§4) Eligible patients received 2 Gy radiotherapy 5 days a week for 6 weeks and 75 mg/m^2 temozolomide (TMZ) orally daily for 6 weeks from the first day to the last day of radiotherapy. After a 4 week treatment break, eligible patients received 6 cycles of 150-200 mg/m^2 TMZ on days 1-5 of a every 4 weeks schedule in combination with 10 mg/kg placebo IV every 2 weeks. TMZ was administered orally starting with a 150 mg/m^2 dose that could be escalated. Placebo monotherapy (15 mg/kg every 3 weeks) was then continued until disease progression.
(§5) Eligible patients received 2 Gy radiotherapy 5 days a week for 6 weeks and 75 mg/m^2 TMZ orally daily for 6 weeks from the first day to the last day of radiotherapy in combination with 10 mg/kg bevacizumab IV every 2 weeks. After a 4 week treatment break, eligible patients received 6 cycles of 150-200 mg/m^2 TMZ on days 1-5 of a every 4 weeks schedule in combination with 10 mg/kg bevacizumab IV every 2 weeks. TMZ was administered orally starting with a 150 mg/m^2 dose that could be escalated. Bevacizumab monotherapy (15 mg/kg every 3 weeks) was then continued until disease progression.
(§6) The initial bevacizumab infusion was over 90 minutes, with subsequent infusions over 60 minutes and then 30 minutes, as tolerated. Bevacizumab was administered on the day of the last day of radiotherapy and TMZ, i.e., the day before the start of the TMZ treatment break.
Analyses of PFS was based on tumor assessments MacDonald Response Criteria (modified WHO criteria) using MRI of the brain and a neurological evaluation as described in Macdonald et al., Response criteria for phase II studies of supratentorial malignant glioma. J Clin Oncol 1990; 8:1277-80.
Tumor assessments were performed at baseline, at the end of the 4 week treatment break, then then every 8 weeks.
Patients≥18 years of age and with newly diagnosed supratentorial Glioblastoma (GBM) with a tissue diagnosis that has been established following either a surgical resection or biopsy. This includes treatment-naïve—(chemotherapy and radiotherapy)—patients with prior diagnosis of a lower grade astrocytoma that has been upgraded to a histologically verified GBM. Patients must have WHO performance status≤2.
Eligible patients had newly diagnosed glioblastoma (WHO performance status≤2). […]

Series [2] is described as follows: AVAglio Phase III trial, safety (adverse events). It counts as in vivo, human. More on the design: unit not given here.
Excerpt: as §1, §2, §3, §4, §5, §6
Patients≥18 years of age and with newly diagnosed supratentorial Glioblastoma (GBM) with a tissue diagnosis that has been established following either a surgical resection or biopsy. […] Patients must have WHO performance status≤2.
Eligible patients had newly diagnosed glioblastoma (WHO performance status≤2). After surgical resection, patients were randomized to concurrent therapy with temozolomide with radiation and placebo or temozolomide with radiation and bevacizumab followed by a 28 day treatment break, maintenance therapy with 10 mg/kg bevacizumab or placebo administered every two weeks in combination with temozolomide, and monotherapy with 15 mg/kg bevacizumab or placebo was administered every three weeks until disease progression or unacceptable toxicity. Patients in the placebo arm were treated at the investigators discretion at progression.

For “bevacizumab + RT + T: Arm 2 of AVAglio: bevacizumab (recombinant humanized anti-VEGF monoclonal antibody) with temozolomide and radiotherapy”, in series [1] (Bv + T/RT versus P + T/RT, p =< 0.001), the “Best ORR: Difference, % (95% CI)” value is 20.4 (13.9-26.8) %. Moreover, the “Events, %” value in series [1] (PFS events, percent of patients) was 77.3%. Besides, the “HR (95% CI)” value in series [1] (PFS hazard ratio, bevacizumab + RT + T versus placebo + RT + T, log-rank p < 0.0001) is listed as 0.64 (0.55-0.74). In addition, in series [1] (addition to first line temozolomide plus radiotherapy), the “effect on ORR (in words)” value was “significantly improves ORR”. In series [1] (end of treatment break), the “Potential PsPD, %” value was 2.6%. Moreover, the “PFS (months)” value in series [1] (median progression-free survival, MacDonald Response Criteria, patients with newly diagnosed glioblastoma) was determined as 10.6 months. Also, in series [1] (objective response rate), the “Best ORR: % (95% CI)” value is recorded as 38.4 (33.5-43.5) %. For the same substance, the “patients on steroids at baseline able to discontinue steroids for part of their progression-free survival interval” value in series [1] (patients on steroids at baseline) came to 66%. In series [1] (post-2nd maintenance cycle), the “Confirmed PsPD, %” value was 2.2% and the “Rejected PsPD, %” value is listed as 0.2%. Also, the “improvement in PFS (in words)” value in series [1] (versus chemotherapy in combination with radiotherapy) is “statistically significant and clinically meaningful improvement in PFS”. Besides, in series [2], the “Thromboembolic event Arterial (all grade)” value came to 5 and the “Thromboembolic event Venous (Grade ≥3)” value is 7.3. In series [2] (adverse event), the “CHF (grade ≥3)” value was found to be 0.4, the “Fistula/abscess (all grade)” value is on record as 0.6, the “Hypertension (Grade ≥3)” value was found to be 10.3 and the “PRES (Posterior reversible encephalopathy syndrome) (all grade)” value was found to be 0. For the same substance, the “Proteinuria (Grade ≥3)” value in series [2] (adverse event) was 3.7. Also, in series [2] (adverse event, Grade ≥3), the “Bleeding (Grade ≥3) Cerebral Hemorrhage” value came out at 1.5, the “Bleeding (Grade ≥3) Mucocutaneous bleeding” value was 0.4 and the “Bleeding (Grade ≥3) Other” value worked out at 0.6. Besides, in series [2] (adverse event, all grade), the “Bleeding (all grade) Cerebral Hemorrhage” value was found to be 2.6, the “Bleeding (all grade) Mucocutaneous bleeding” value turned out to be 26.7 and the “Bleeding (all grade) Other” value is recorded as 11.6.
